# According to PMC11489326, “Characterization of lignin-degrading enzyme PmdC, which catalyzes a key step in the synthesis of polymer precursor 2-pyrone-4,6-dicarboxylic acid” (The Journal of Biological Chemistry, 2024):
# Molecular target: CHMS dehydrogenase PmdC from Comamonas testosteroni (Comamonas testosteroni)
# Experiment: SEC; purified PmdC (wild type and mutants) in solution; conditions of the run not told in the text shown (Figs. S5, S12)
substance,measurement,value
CHMS dehydrogenase PmdC from Comamonas testosteroni (enzyme),stoichiometry N,2
